Test results taken from publication PMC3290569, “Macro-to-Micro Structural Proteomics: Native Source Proteins for High-Throughput Crystallization” (PLoS ONE, 2012).

B1: Methylglyoxal reductase (YghZ) (enzyme, Escherichia coli, UniProt Q46851 1-346, looked up)
chain: MVWLANPERYGQMQYRYCGKSGLRLPALSLGLWHNFGHVNALESQRAILRKAFDLGITHFDLANNYGPPPGSAEENFGRLLREDFAAYRDELIISTKAGYDMWPGPYGSGGSRKYLLASLDQSLKRMGLEYVDIFYSHRVDENTPMEETASALAHAVQSGKALYVGISSYSPERTQKMVELLREWKIPLLIHQPSYNLLNRWVDKSGLLDTLQNNGVGCIAFTPLAQGLLTGKYLNGIPQDSRMHREGNKVRGLTPKMLTEANLNSLRLLNEMAQQRGQSMAQMALSWLLKDDRVTSVLIGASRAEQLEENVQALNNLTFSTKELAQIDQHIADGELNLWQASSDK
notes: methylglyoxal reductase YghZ, Escherichia coli, native source protein; identified from the electron density after molecular replacement; source: purified from E. coli DH5α cells (heparin sepharose, phenyl sepharose, MonoQ)
B2: Glucose-6-phosphate isomerase (pGI) (enzyme)
chain: not shown
notes: glucose-6-phosphate isomerase, Escherichia coli, native source protein; also called phosphoglucose isomerase; source: purified from E. coli DH5α cells (CaptoQ, phenyl sepharose, MonoQ)
B3: Citrate synthase (enzyme, Escherichia coli, UniProt P0ABH7 1-427, looked up)
chain: MADTKAKLTLNGDTAVELDVLKGTLGQDVIDIRTLGSKGVFTFDPGFTSTASCESKITFIDGDEGILLHRGFPIDQLATDSNYLEVCYILLNGEKPTQEQYDEFKTTVTRHTMIHEQITRLFHAFRRDSHPMAVMCGITGALAAFYHDSLDVNNPRHREIAAFRLLSKMPTMAAMCYKYSIGQPFVYPRNDLSYAGNFLNMMFSTPCEPYEVNPILERAMDRILILHADHEQNASTSTVRTAGSSGANPFACIAAGIASLWGPAHGGANEAALKMLEEISSVKHIPEFVRRAKDKNDSFRLMGFGHRVYKNYDPRATVMRETCHEVLKELGTKDDLLEVAMELENIALNDPYFIEKKLYPNVDFYSGIILKAMGIPSSMFTVIFAMARTVGWIAHWSEMHSDGMKIARPRQLYTGYEKRDFKSDIKR
notes: citrate synthase, Escherichia coli, native source protein; identified with PDB 1NXG; the PDB entry is the previously deposited structure that identified the protein; the crystallised protein is the native one; source: purified from E. coli DH5α cells (whole-proteome fractionation)
B4: ycaC gene product (natural protein, Escherichia coli, UniProt P21367 1-208, looked up)
chain: MTKPYVRLDKNDAAVLLVDHQAGLLSLVRDIEPDKFKNNVLALGDLAKYFNLPTILTTSFETGPNGPLVPELKAQFPDTPYIARPGNINAWDNEDFVKAVKATGKKQLIIAGVVTEVCVAFPALSAIEEGFDVFVVTDASGTFNEITRHSAWDRLSQAGAQLMTWFGVACELHRDWRNDIEGLATLFSNHIPDYRNLMTSYDTLTKQK
notes: ycaC gene product, Escherichia coli, native source protein; identified with PDB 1YAC; the PDB entry is the previously deposited structure that identified the protein; the crystallised protein is the native one; source: purified from E. coli DH5α cells (whole-proteome fractionation)
B5: MoaB (molybdopterin biosynthesis protein B) (natural protein, Escherichia coli, UniProt P0AEZ9 1-170, looked up)
chain: MSQVSTEFIPTRIAILTVSNRRGEEDDTSGHYLRDSAQEAGHHVVDKAIVKENRYAIRAQVSAWIASDDVQVVLITGGTGLTEGDQAPEALLPLFDREVEGFGEVFRMLSFEEIGTSTLQSRAVAGVANKTLIFAMPGSTKACRTAWENIIAPQLDARTRPCNFHPHLKK
notes: MoaB, molybdopterin biosynthesis protein B, Escherichia coli, native source protein; identified with PDB 1R2K; the PDB entry is the previously deposited structure that identified the protein; the crystallised protein is the native one; source: purified from E. coli DH5α cells (whole-proteome fractionation)
B6: Malate dehydrogenase (enzyme, Escherichia coli, UniProt P61889 1-312, looked up)
chain: MKVAVLGAAGGIGQALALLLKTQLPSGSELSLYDIAPVTPGVAVDLSHIPTAVKIKGFSGEDATPALEGADVVLISAGVARKPGMDRSDLFNVNAGIVKNLVQQVAKTCPKACIGIITNPVNTTVAIAAEVLKKAGVYDKNKLFGVTTLDIIRSNTFVAELKGKQPGEVEVPVIGGHSGVTILPLLSQVPGVSFTEQEVADLTKRIQNAGTEVVEAKAGGGSATLSMGQAAARFGLSLVRALQGEQGVVECAYVEGDGQYARFFSQPLLLGKNGVEERKSIGTLSAFEQNALEGMLDTLKKDIALGEEFVNK
notes: malate dehydrogenase, Escherichia coli, native source protein; identified with PDB 2PWZ; the PDB entry is the previously deposited structure that identified the protein; the crystallised protein is the native one; source: purified from E. coli DH5α cells (whole-proteome fractionation)
B7: Cystathione gamma-synthase (enzyme, Escherichia coli, UniProt P00935 1-386, looked up)
chain: MTRKQATIAVRSGLNDDEQYGCVVPPIHLSSTYNFTGFNEPRAHDYSRRGNPTRDVVQRALAELEGGAGAVLTNTGMSAIHLVTTVFLKPGDLLVAPHDCYGGSYRLFDSLAKRGCYRVLFVDQGDEQALRAALAEKPKLVLVESPSNPLLRVVDIAKICHLAREVGAVSVVDNTFLSPALQNPLALGADLVLHSCTKYLNGHSDVVAGVVIAKDPDVVTELAWWANNIGVTGGAFDSYLLLRGLRTLVPRMELAQRNAQAIVKYLQTQPLVKKLYHPSLPENQGHEIAARQQKGFGAMLSFELDGDEQTLRRFLGGLSLFTLAESLGGVESLISHAATMTHAGMAPEARAAAGISETLLRISTGIEDGEDLIADLENGFRAANKG
notes: cystathionine gamma-synthase (printed: Cystathione gamma-synthase), Escherichia coli, native source protein; identified with PDB 1CS1; the PDB entry is the previously deposited structure that identified the protein; the crystallised protein is the native one; source: purified from E. coli DH5α cells (whole-proteome fractionation)
B8: Lysyl-tRNA synthetase (constitutive) (enzyme, Escherichia coli, UniProt P0A8N3 1-505, looked up)
chain: MSEQHAQGADAVVDLNNELKTRREKLANLREQGIAFPNDFRRDHTSDQLHAEFDGKENEELEALNIEVAVAGRMMTRRIMGKASFVTLQDVGGRIQLYVARDDLPEGVYNEQFKKWDLGDILGAKGKLFKTKTGELSIHCTELRLLTKALRPLPDKFHGLQDQEARYRQRYLDLISNDESRNTFKVRSQILSGIRQFMVNRGFMEVETPMMQVIPGGAAARPFITHHNALDLDMYLRIAPELYLKRLVVGGFERVFEINRNFRNEGISVRHNPEFTMMELYMAYADYKDLIELTESLFRTLAQDILGKTEVTYGDVTLDFGKPFEKLTMREAIKKYRPETDMADLDNFDSAKAIAESIGIHVEKSWGLGRIVTEIFEEVAEAHLIQPTFITEYPAEVSPLARRNDVNPEITDRFEFFIGGREIGNGFSELNDAEDQAQRFLDQVAAKDAGDDEAMFYDEDYVTALEHGLPPTAGLGIGIDRMVMLFTNSHTIRDVILFPAMRPVK
notes: lysyl-tRNA synthetase, constitutive form, Escherichia coli, native source protein; identified with PDB 1BBW; the PDB entry is the previously deposited structure that identified the protein; the crystallised protein is the native one; source: purified from E. coli DH5α cells (whole-proteome fractionation)

Biological target: the molecule itself
Assay: crystal structure; novel structures of native source E. coli proteins, solved by molecular replacement and refined; oligomer seen in the crystal

| Protein | stoichiometry N |
| --- | --- |
| B1 | 4 |
| B2 | 2 |

Biological target: the molecule itself
Assay: crystal structure; native source E. coli proteins already in the PDB, identified and solved by brute-force molecular replacement, not refined except to confirm the solution; oligomer seen in the crystal

| Protein | binding result |
| --- | --- |
| B3 | binds |
| B4 | binds |
| B5 | binds |
| B6 | binds |
| B7 | binds |
| B8 | binds |
